Test results: IntAct's records for PubMed 17210637

Molecular target: merl_human NF2 (UniProt P35240)
Chain of UniProt P35240 (P35240 whole entry): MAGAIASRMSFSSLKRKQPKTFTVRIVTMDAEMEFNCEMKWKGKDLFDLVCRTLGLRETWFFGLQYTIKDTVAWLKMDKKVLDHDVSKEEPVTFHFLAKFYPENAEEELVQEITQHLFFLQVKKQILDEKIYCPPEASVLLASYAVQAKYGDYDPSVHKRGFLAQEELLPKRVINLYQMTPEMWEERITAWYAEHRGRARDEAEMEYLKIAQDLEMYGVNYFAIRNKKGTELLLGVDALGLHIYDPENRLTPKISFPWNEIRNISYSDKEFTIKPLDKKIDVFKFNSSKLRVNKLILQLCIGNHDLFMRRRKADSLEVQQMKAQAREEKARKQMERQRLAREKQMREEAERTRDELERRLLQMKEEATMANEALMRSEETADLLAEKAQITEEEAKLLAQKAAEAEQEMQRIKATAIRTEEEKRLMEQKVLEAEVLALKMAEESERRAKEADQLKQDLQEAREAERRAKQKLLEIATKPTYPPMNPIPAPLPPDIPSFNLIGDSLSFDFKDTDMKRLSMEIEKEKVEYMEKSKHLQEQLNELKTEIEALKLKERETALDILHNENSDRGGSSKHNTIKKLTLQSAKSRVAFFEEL

effect of a mutation on the interaction: decreasing interaction
Substance: GTP-binding protein 4 (Homo sapiens) (from UniProt Q9BZE4) R394A;K395A
